The source of these data is patent US9593156B2 (priority 2012, dated 2017).

Ends that are not written are not given here.

Usually IC80 stands for the point of the concentration-response curve where the effect stands at 80%. Read a high IC80 as a need for much substance.

Assay [1] has as its target IGF-1 receptor (Homo sapiens, UniProt P08069). Put plainly: IGF-1 receptor competition binding assay (scintillation proximity). More on the design: expressed in transfected cells; plasma membrane fragments. The note with it: Table 9; IGF-1 Receptor. (In a scintillation proximity assay essentially only radioactivity close to the scintillant gives light.)
The target in assay [2] is T1, type A insulin receptor (IR-A) (Homo sapiens, UniProt P06213).
T1 construct: expressed in transfected cells; host or cells: HEK293
Nature of the assay: Receptor kinase activity (phosphorylation) assay, type A insulin receptor. Format: cell-based.

Assay [3] addresses T2, type B insulin receptor (IR-B) (Homo sapiens, UniProt P06213).
T2 construct: expressed in transfected cells; host or cells: HEK293
Nature of the assay: Receptor kinase activity (phosphorylation) assay, type B insulin receptor. Format: cell-based.

Chain of IGF-1 receptor (P08069 31-736 limits assumed): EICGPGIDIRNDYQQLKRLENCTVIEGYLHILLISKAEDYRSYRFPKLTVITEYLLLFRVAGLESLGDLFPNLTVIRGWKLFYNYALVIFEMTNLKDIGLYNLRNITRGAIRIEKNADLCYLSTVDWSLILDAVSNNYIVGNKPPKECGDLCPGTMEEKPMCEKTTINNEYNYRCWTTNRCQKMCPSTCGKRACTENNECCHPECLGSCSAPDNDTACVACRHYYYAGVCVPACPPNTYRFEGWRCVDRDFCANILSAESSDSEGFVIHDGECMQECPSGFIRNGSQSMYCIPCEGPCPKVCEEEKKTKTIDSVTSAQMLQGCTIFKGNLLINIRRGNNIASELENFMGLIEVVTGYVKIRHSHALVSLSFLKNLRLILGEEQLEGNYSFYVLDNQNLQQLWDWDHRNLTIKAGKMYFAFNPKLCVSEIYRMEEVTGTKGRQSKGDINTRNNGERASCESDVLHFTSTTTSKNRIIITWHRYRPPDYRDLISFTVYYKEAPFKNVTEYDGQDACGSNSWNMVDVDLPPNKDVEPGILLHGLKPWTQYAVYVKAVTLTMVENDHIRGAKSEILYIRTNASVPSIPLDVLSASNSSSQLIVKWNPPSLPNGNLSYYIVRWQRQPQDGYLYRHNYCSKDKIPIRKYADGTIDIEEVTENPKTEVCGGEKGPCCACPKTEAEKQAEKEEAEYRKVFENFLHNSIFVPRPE
Chain of IGF-1 receptor (P08069 741-1367 partner limits assumed): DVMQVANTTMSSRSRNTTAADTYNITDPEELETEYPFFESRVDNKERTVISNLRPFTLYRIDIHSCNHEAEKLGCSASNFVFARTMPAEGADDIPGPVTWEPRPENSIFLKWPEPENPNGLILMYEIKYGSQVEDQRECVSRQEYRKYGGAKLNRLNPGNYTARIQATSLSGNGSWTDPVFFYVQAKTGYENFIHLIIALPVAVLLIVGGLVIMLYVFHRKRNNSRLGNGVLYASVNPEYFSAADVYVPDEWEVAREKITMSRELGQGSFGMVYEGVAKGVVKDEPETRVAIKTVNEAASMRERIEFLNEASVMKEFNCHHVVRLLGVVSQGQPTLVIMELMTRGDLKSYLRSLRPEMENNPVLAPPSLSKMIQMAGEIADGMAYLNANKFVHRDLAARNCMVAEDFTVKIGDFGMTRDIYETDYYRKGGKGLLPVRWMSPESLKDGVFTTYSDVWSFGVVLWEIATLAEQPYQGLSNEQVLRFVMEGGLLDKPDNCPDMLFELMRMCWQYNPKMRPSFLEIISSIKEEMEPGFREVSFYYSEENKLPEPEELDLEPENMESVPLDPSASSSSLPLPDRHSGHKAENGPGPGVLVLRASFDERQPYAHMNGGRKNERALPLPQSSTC

`CC[C@H](C)[C@H](NC(=O)CN)C(=O)N[C@H](C(=O)N[C@@H](CC(=O)O)C(=O)N[C@@H](CCC(=O)O)C(=O)N[C@H]1CSSC[C@@H]2NC(=O)[C@H](CO)NC(=O)[C@H](CCCNC(=N)N)NC(=O)[C@H](Cc3ccccc3)NC(=O)[C@H](CSSC[C@H](NC(=O)[C@H](CC(C)C)NC(=O)[C@@H](NC(=O)[C@H](CCC(=O)O)NC(=O)[C@@H]3CCCN3C(=O)CN)[C@@H](C)O)C(=O)NCC(=O)N[C@@H](C)C(=O)N[C@@H](CCC(=O)O)C(=O)N[C@@H](CC(C)C)C(=O)N[C@@H](C(C)C)C(=O)N[C@@H](CC(=O)O)C(=O)N[C@@H](C)C(=O)N[C@@H](CC(C)C)C(=O)N[C@@H](Cc3ccc(O)cc3)C(=O)N[C@@H](CC(C)C)C(=O)N[C@@H](C(C)C)C(=O)N[C@H](C(=O)NCC(=O)N[C@@H](CC(=O)O)C(=O)N[C@@H](CCCNC(=N)N)C(=O)NCC(=O)N[C@@H](Cc3ccccc3)C(=O)N[C@@H](Cc3ccc(O)cc3)C(N)=O)CSSC[C@@H](C(=O)N[C@@H](C)C(N)=O)NC(=O)[C@H](Cc3ccc(O)cc3)NC(=O)[C@H](CCSC)NC(=O)[C@H](CCC(=O)O)NC(=O)[C@H](CC(C)C)NC(=O)[C@H](CCCNC(=N)N)NC(=O)[C@H](CCCNC(=N)N)NC(=O)[C@H](CC(C)C)NC(=O)[C@H](CC(=O)O)NC2=O)NC1=O)C(C)C` [IGF-1 A:B (E10Y16L17) DPI]: in assay [1], the “% IGF-1 (in test)” value is reported as 3.3%.

`CC[C@H](C)[C@H](NC(=O)CN)C(=O)N[C@H](C(=O)N[C@@H](CC(=O)O)C(=O)N[C@@H](CCC(=O)O)C(=O)N[C@H]1CSSC[C@@H]2NC(=O)[C@H](CO)NC(=O)[C@H](CCCNC(=N)N)NC(=O)[C@H](Cc3ccccc3)NC(=O)[C@H](CSSC[C@H](NC(=O)[C@H](CC(C)C)NC(=O)[C@H](Cc3c[nH]cn3)NC(=O)[C@H](CCC(N)=O)NC(=O)[C@H](CC(N)=O)NC(=O)[C@@H](NC(=O)[C@@H](N)Cc3ccccc3)C(C)C)C(=O)NCC(=O)N[C@@H](CO)C(=O)N[C@@H](Cc3c[nH]cn3)C(=O)N[C@@H](CC(C)C)C(=O)N[C@@H](C(C)C)C(=O)N[C@@H](CCC(=O)O)C(=O)N[C@@H](C)C(=O)N[C@@H](CC(C)C)C(=O)N[C@@H](Cc3ccc(O)cc3)C(=O)N[C@@H](CC(C)C)C(=O)N[C@@H](C(C)C)C(=O)N[C@H](C(=O)NCC(=O)N[C@@H](CC(=O)O)C(=O)N[C@@H](CCCNC(=N)N)C(=O)NCC(=O)N[C@@H](Cc3ccccc3)C(=O)N[C@@H](Cc3ccc(O)cc3)C(=O)N[C@@H](Cc3ccccc3)C(=O)N[C@@H](CC(N)=O)C(=O)N[C@@H](CCCCN)C(=O)N3CCC[C@H]3C(=O)N[C@H](C(N)=O)[C@@H](C)O)CSSC[C@@H](C(=O)N[C@@H](C)C(N)=O)NC(=O)[C@H](Cc3ccc(O)cc3)NC(=O)[C@H](CCSC)NC(=O)[C@H](CCC(=O)O)NC(=O)[C@H](CC(C)C)NC(=O)[C@H](CCCNC(=N)N)NC(=O)[C@H](CCCNC(=N)N)NC(=O)[C@H](CC(C)C)NC(=O)[C@H](CC(=O)O)NC2=O)NC1=O)C(C)C` [IGF-1 A:In (1-17)-IGF-1 B(18-30)] gave an 80% effect concentration (IC80) in assay [1] of 62.5 nM.

As to `CC[C@H](C)[C@H](NC(=O)CN)C(=O)N[C@H](C(=O)N[C@@H](CC(=O)O)C(=O)N[C@@H](CCC(=O)O)C(=O)N[C@H]1CSSC[C@@H]2NC(=O)[C@H](CO)NC(=O)[C@H](CCCNC(=N)N)NC(=O)[C@H](Cc3ccccc3)NC(=O)[C@H](CSSC[C@H](NC(=O)[C@H](CC(C)C)NC(=O)[C@H](Cc3c[nH]cn3)NC(=O)[C@H](CCC(N)=O)NC(=O)[C@H](CC(N)=O)NC(=O)[C@@H](NC(=O)[C@@H](N)Cc3ccccc3)C(C)C)C(=O)NCC(=O)N[C@@H](C)C(=O)N[C@@H](CCC(=O)O)C(=O)N[C@@H](CC(C)C)C(=O)N[C@@H](C(C)C)C(=O)N[C@@H](CC(=O)O)C(=O)N[C@@H](C)C(=O)N[C@@H](CC(C)C)C(=O)N[C@@H](Cc3ccc(O)cc3)C(=O)N[C@@H](CC(C)C)C(=O)N[C@@H](C(C)C)C(=O)N[C@H](C(=O)NCC(=O)N[C@@H](CC(=O)O)C(=O)N[C@@H](CCCNC(=N)N)C(=O)NCC(=O)N[C@@H](Cc3ccccc3)C(=O)N[C@@H](Cc3ccc(O)cc3)C(=O)N[C@@H](Cc3ccccc3)C(=O)N[C@@H](CC(N)=O)C(=O)N[C@@H](CCCCN)C(=O)N3CCC[C@H]3C(=O)N[C@H](C(N)=O)[C@@H](C)O)CSSC[C@@H](C(=O)N[C@@H](C)C(N)=O)NC(=O)[C@H](Cc3ccc(O)cc3)NC(=O)[C@H](CCSC)NC(=O)[C@H](CCC(=O)O)NC(=O)[C@H](CC(C)C)NC(=O)[C@H](CCCNC(=N)N)NC(=O)[C@H](CCCNC(=N)N)NC(=O)[C@H](CC(C)C)NC(=O)[C@H](CC(=O)O)NC2=O)NC1=O)C(C)C` [IGF-1 A:In B(1-5)-IGF-1 B(YL) (6-30)], in assay [1], the “% IGF-1 (in test)” value turned out to be 3.6%.

With “B1,A14-10K B^1(H5,10Y16L17R29)29:A^1(H8K14N18,21) (chain 1 GPEHLCGAHLVDALYLVCGDRGFYFNKR; chain 2 GIVDECCHRSCDLKRLENYCN) [di-10K-TC]”, the IR-A in assay [2] (Table 14) came to 6.4%. Besides, the IR-B in assay [3] (Table 14) was 2.1%.

The molecule “B1,A14-10K B^1(H5,10Y16L17R29)30-C^1des9-12-A^1(H8,K14,N18,21) (GPEHLCGAHLVDALYLVCGDRGFYFNKRTGYGSSSRRGIVDECCHRSCDLKRLENYCN) [MIU-79]” had an IR-A in assay [2] (Table 14) of 1.7%. In addition, in assay [3] (Table 14), the IR-B was 0.2%.

Consider “B1-PEG20K MIU-35 (GPEHLCGAHLVDALYLVCGDRGFYGYGSSSRRAPQTGIVDECCHRSCDLRRLENYCN; not fully specified (N-terminus); ends and bridges not checked; also: PEG20K at B1) [#39]”, for which the “% Insulin Activity IR-A” value in assay [2] (Table 12) stood at 3.1%. In assay [2] (Table 13), this molecule came in with an IR-A of 4.5%. Moreover, the “Phosphorylation (EC50) % IR-A” value in assay [2] (Table 17) was 4.5%. For the same molecule, the “% Insulin Activity IR-B” value in assay [3] (Table 12) came out at 1.1%. In assay [3] (Table 13), this molecule displayed an IR-B of 1.1%. Besides, the “Phosphorylation (EC50) % IR-B” value in assay [3] (Table 17) came to 1.1%.

The molecule “B^1(H5,10Y16L17)25-C^1-A^1(T8N18,21) (GPEHLCGAHLVDALYLVCGDRGFYGYGSSSRRAPQTGIVDECCTRSCDLRRLENYCN) [Thr,A8]” returned an IR-A in assay [2] (Table 13) of 20.4%. The IR-B in assay [3] (Table 13) is 8.4%.

“B^1(H5,10Y16L17K29)29-A^1(H8,N18,21) (GPEHLCGAHLVDALYLVCGDRGFYFNKKGIVDECCHRSCDLRRLENYCN) [DP3(SC)]” showed an IR-A in assay [2] (Table 14) of 0.03%.

In the case of “B^1(H5,10Y16L17K29)29:A^1(H8,N18,21) (chain 1 GPEHLCGAHLVDALYLVCGDRGFYFNKK; chain 2 GIVDECCHRSCDLRRLENYCN) [DP3(TC)]”, in assay [2] (Table 14), the IR-A is 159.8%. The same molecule registered an IR-B in assay [3] (Table 14) of 33.1%.

“B^1(H5,10Y16L17R29)30-C^1des9-12-A^1(H8,K14,N18,21) (GPEHLCGAHLVDALYLVCGDRGFYFNKRTGYGSSSRRGIVDECCHRSCDLKRLENYCN) [DP8Mut3KA14]” had an IR-A in assay [2] (Table 14) of 132.2%. In assay [3] (Table 14), the IR-B is reported as 12.6%.

B1: GE5W-B^1(H5,10Y16L17)25-C^1-A^1(A1H8N18,21) (protein)
chain: GEEEEEWGPEHLCGAHLVDALYLVCGDRGFYGYGSSSRRAPQTAIVDECCHRSCDLRRLENYCN
Take B1: the IR-A in assay [2] (Table 13) worked out at 2.1%. In assay [3] (Table 13), this molecule yielded an IR-B of 0.7%.
